Publication PMC12339479

Target: Chicken ACE2-hFc (soluble chicken ACE2 residues 18-740 fused to human IgG1 Fc) (chicken (Gallus gallus))
Assay: SPR

Substance | Kd | kon
SARS-CoV-2 Gamma (P.1) RBD monomer (from UniProt P0DTC2) (domain or fragment) | 44.7 µM | 4200 M⁻¹ s⁻¹
SARS-CoV-2 Alpha (B.1.1.7) RBD monomer (from UniProt P0DTC2) (domain or fragment) | 409 µM | 300 M⁻¹ s⁻¹
SARS-CoV-2 Omicron BA.2 RBD monomer (from UniProt P0DTC2) (domain or fragment) | 0.334 µM | 258000 M⁻¹ s⁻¹
SARS-CoV-2 Omicron BA.5 RBD monomer (from UniProt P0DTC2) (domain or fragment) | 0.375 µM | –
